Assay results as given in patent publication US7183110B2, “Antibody immunoreactive with a 5-enolpyruvylshikimate-3-phosphate synthase” (Monsanto Technology LLC, priority 1990, dated 2007).

Tests used:
[1] = test system: rabbit anti-EPSPS antibody; test: Western analysis with rabbit anti-EPSPS antibody to the Petunia EPSPS protein; type: binding; conditions: crude extracts 50 μg protein; control Petunia EPSPS 20 ng; Protein A-125I development
Excerpt: The presence of EPSPS activity in these extracts was confirmed by enzyme assay. This surprising result, indicating a lack of similarity between the EPSPS's from these bacterial isolates and those previously studied, coupled with the combination of a low Km for PEP and a high Ki for glyphosate, illustrates that these new EPSPS enzymes are different from known EPSPS enzymes (now referred to as Class I EPSPS).

CP4 EPSPS = target: T1, CP4 EPSPS (Agrobacterium sp., UniProt Q9R4E4, S2A); test: EPSPS activity from native and synthetic CP4 EPSPS genes expressed in E. coli; type: biochemical, Agrobacterium sp. strain CP4
T1 construct: made in house; host or cells: E. coli, PRecA-gene10L vector
T1 sequence (Q9R4E4 whole entry S2A): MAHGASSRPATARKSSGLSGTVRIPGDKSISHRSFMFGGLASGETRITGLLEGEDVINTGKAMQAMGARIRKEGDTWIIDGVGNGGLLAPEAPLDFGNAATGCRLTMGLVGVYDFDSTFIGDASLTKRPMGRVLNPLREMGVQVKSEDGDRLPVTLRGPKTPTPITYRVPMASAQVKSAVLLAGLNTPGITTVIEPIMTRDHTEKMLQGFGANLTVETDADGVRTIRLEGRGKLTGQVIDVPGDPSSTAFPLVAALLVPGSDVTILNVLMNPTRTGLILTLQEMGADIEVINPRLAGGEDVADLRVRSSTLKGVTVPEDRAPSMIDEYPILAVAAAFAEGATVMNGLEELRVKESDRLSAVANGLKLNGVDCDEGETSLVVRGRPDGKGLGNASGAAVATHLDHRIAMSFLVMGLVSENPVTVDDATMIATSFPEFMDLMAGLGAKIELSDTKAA
Excerpt: A synthetic CP4 gene was designed to change as completely as possible those inimical sequences discussed above. In summary, the gene sequence was redesigned to eliminate as much as possible the following sequences or sequence features (while avoiding the introduction of unnecessary restriction sites): stretches of G's and C's of 5 or greater; and A+T rich regions (predominantly) that could function as polyadenylation sites or potential RNA destabilization region The sequence of this gene is shown in FIG. 8 (SEQ ID NO:9). This coding sequence was expressed in E. coli from the RecA promoter and assayed for EPSPS activity and compared with that from the native CP4 EPSPS gene. […] The N-terminus of the coding sequence was mutagenized to place an SphI site at the ATG to permit the construction of the CTP2-CP4 synthetic fusion for chloroplast import. The following primer was used to accomplish this mutagenesis:
The EPSPS gene was isolated originally from Agrobacterium sp. strain CP4 and expresses a highly tolerant enzyme. The original gene contains sequences that could be inimical to high expression of the gene in some plants. […] The high G+C % in the CP4 EPSPS gene could also result in the formation of strong hairpin structures that may affect expression or stability of the RNA. A plant preferred version of the gene was synthesized and used for these vectors. This coding sequence was expressed in E. coli from a PRecA-gene10L vector (Olins et al., 1988) and the EPSPS activity was compared with that from the native CP4 EPSPS gene. […] The N-terminus of the coding sequence was then mutagenized to place an SphI site (GCATGC) at the ATG to permit the construction of the CTP2-CP4 synthetic fusion for chloroplast import. This change had no apparent effect on the in vivo activity of CP4 EPSPS in E. coli as judged by complementation of the aroA mutant. A CTP-CP4 EPSPS fusion was constructed between the Arabidopsis thaliana EPSPS CTP (Klee et al., 1987) and the CP4 EPSPS coding sequences. The Arabidopsis CTP was engineered by site-directed mutagenesis to place a SphI restriction site at the CTP processing site. This mutagenesis replaced the Glu-Lys at this location with Cys-Met. The CTP2-CP4 EPSPS fusion was tested for import into chloroplasts isolated from Lactuca sativa using the methods described previously (della-Cioppa et al., 1986: 1987).

EPSPS enzymes = test: Kinetic characterization of EPSPS enzymes (Km PEP, Ki glyphosate); type: biochemical; conditions: for Ki/Km: Ki glyphosate / Km PEP; for Km: Km of the EPSPS enzyme for phosphoenolpyruvate, PEP ranges tested in table footnotes
Method: The EPSPS enzymes from these microorganisms were then subjected to further study and analysis.
When the change introduced into the Petunia EPSPS (GA101) was introduced into a number of other EPSPS enzymes, similar changes in kinetics were observed, an elevation of the Ki for glyphosate and of the Km for PEP.
All protein purification procedures were carried out at 3–5° C. EPSPS enzyme assays were performed using either the phosphate release or radioactive HPLC method, as previously described in Padgette et al., 1987, using 1 mM phosphoenol pyruvate (PEP, Boehringer) and 2 mM shikimate-3-phosphate (S3P) substrate concentrations. For radioactive HPLC assays, ^14C-PEP (Amersham) was utilized. S3P was synthesized as previously described in Wibbenmeyer et al. 1988. N-terminal amino acid sequencing was performed by loading samples onto a Polybrene precycled filter in aliquots while drying. Automated Edman degradation chemistry was used to determine the N-terminal protein sequence, using an Applied Biosystems Model 470A gas phase sequencer (Hunkapiller et al., 1983) with an Applied Biosystems 120A PTH analyzer.

LBAA EPSPS = test: appKm and appKi of LBAA EPSPS wild type and G100A variant in E. coli crude lysates; type: biochemical, Achromobacter sp. strain LBAA; conditions: range of PEP: 2–40 μM
Excerpt: One difference that may be noted between the deduced amino acid sequences of the CP4 and LBAA EPSPS proteins is at position 100 where an Alanine is found in the case of the CP4 enzyme and a Glycine is found in the case of the LBAA enzyme. In the Class I EPSPS enzymes a Glycine is usually found in the equivalent position, i.e Glycine96 in E. coli and K. pneumoniae and Glycine101 in Petunia. In the case of these three enzymes it has been reported that converting that Glycine to an Alanine results in an elevation of the appKi for glyphosate and a concomitant elevation in the appKm for PEP (Kishore et al., 1986; Kishore and Shah, 1988; Sost and Amrhein, 1990), which, as discussed above, makes the enzyme less efficient especially under conditions of lower PEP concentrations. The Glycine100 of the LBAA EPSPS was converted to an Alanine and both the appKm for PEP and the appKi for glyphosate were determined for the variant. The Glycine100Alanine change was introduced by mutagenesis using the following primer:
and both the wild type and variant genes were expressed in E. coli in a RecA promoter expression vector (pMON17201 and pMON17264, respectively) and the appKm's and appKi's determined in crude lysates. […] However, in contrast to the results in the Class I G-A variants, the appKm(PEP) in the Class II (LBAA) G-A variant is unaltered. […]

Molecule | signal in Western analysis with rabbit anti-EPSPS antibody [1] | appKm for PEP (CP4 EPSPS; expressed in E. coli from a PRecA-gene10L vector) | Km (CP4 EPSPS; expressed in E. coli from the RecA promoter, read-out: apparent Km for PEP) | Ki/Km (EPSPS enzymes) | Km (EPSPS enzymes) | appKm(PEP) (LBAA EPSPS)
CP4: Class II EPSPS enzyme from Agrobacterium sp. strain CP4 (SEQ ID NO:3) (protein, listed as Agrobacterium sp.) MSHGASSRPATARKSSGLSGTVRIPGDKSISHRSFMFGGLASGETRITGLLEGEDVINTGKAMQAMGARIRKEGDTWIIDGVGNGGLLAPEAPLDFGNAATGCRLTMGLVGVYDFDSTFIGDASLTKRPMGRVLNPLREMGVQVKSEDGDRLPVTLRGPKTPTPITYRVPMASAQVKSAVLLAGLNTPGITTVIEPIMTRDHTEKMLQGFGANLTVETDADGVRTIRLEGRGKLTGQVIDVPGDPSSTAFPLVAALLVPGSDVTILNVLMNPTRTGLILTLQEMGADIEVINPRLAGGEDVADLRVRSSTLKGVTVPEDRAPSMIDEYPILAVAAAFAEGATVMNGLEELRVKESDRLSAVANGLKLNGVDCDEGETSLVVRGRPDGKGLGNASGAAVATHLDHRIAMSFLVMGLVSENPVTVDDATMIATSFPEFMDLMAGLGAKIELSDTKAA | no positive signal could be detected | 11.8 µM | 11.8 µM | 227 | 12 µM | 
LBAA: Class II EPSPS enzyme from Achromobacter sp. strain LBAA (SEQ ID NO:5); wild type gene expressed from pMON17201 (protein, listed as Agrobacterium sp.) MSHSASPKPATARRSEALTGEIRIPGDKSISHRSFMFGGLASGETRITGLLEGEDVINTGRAMQAMGAKIRKEGDVWIINGVGNGCLLQPEAALDFGNAGTGARLTMGLVGTYDMKTSFIGDASLSKRPMGRVLNPLREMGVQVEAADGDRMPLTLIGPKTANPITYRVPMASAQVKSAVLLAGLNTPGVTTVIEPVMTRDHTEKMLQGFGADLTVETDKDGVRHIRITGQGKLVGQTIDVPGDPSSTAFPLVAALLVEGSDVTIRNVLMNPTRTGLILTLQEMGADIEVLNARLAGGEDVADLRVRASKLKGVVVPPERAPSMIDEYPVLAIAASFAEGETVMDGLDELRVKESDRLAAVARGLEANGVDCTEGEMSLTVRGRPDGKGLGGGTVATHLDHRIAMSFLVMGLAAEKPVTVDDSNMIATSFPEFMDMMPGLGAKIELSIL | no positive signal could be detected |  |  | ~7.9 | 7.3 to 8 µM | 5.3 µM
